Reference: patent publication US20250313631A1 (HUMMINGBIRD BIOSCIENCE PTE, published 2025)

How the values were obtained:
human PD-1 = human PD-1 (human, UniProt Q15116 25-167); assay: ELISA, plate coated with the antigen
human B7H3 = molecular target: T1, human B7H3 (human, UniProt Q5ZPR3 29-461, limits assumed); assay: ELISA, plate coated with the antigen
T1 construct: also called CD276
T1 sequence (looked up): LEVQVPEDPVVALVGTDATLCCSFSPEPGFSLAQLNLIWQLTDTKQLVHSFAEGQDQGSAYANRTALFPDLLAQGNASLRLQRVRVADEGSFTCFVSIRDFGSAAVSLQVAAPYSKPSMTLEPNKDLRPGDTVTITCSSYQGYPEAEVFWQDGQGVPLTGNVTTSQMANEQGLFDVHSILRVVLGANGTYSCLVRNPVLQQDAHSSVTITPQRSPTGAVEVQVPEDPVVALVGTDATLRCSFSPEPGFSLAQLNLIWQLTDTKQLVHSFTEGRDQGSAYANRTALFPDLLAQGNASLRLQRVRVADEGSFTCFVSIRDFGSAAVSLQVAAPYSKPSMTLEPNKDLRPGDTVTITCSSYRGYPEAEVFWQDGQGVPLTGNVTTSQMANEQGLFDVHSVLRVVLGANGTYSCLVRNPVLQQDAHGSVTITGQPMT

human B7H4 = molecular target: T2, human B7H4 (human, UniProt Q7Z7D3 25-258, limits assumed); assay: ELISA, plate coated with the antigen
T2 construct: also called VTCN1
T2 sequence (looked up): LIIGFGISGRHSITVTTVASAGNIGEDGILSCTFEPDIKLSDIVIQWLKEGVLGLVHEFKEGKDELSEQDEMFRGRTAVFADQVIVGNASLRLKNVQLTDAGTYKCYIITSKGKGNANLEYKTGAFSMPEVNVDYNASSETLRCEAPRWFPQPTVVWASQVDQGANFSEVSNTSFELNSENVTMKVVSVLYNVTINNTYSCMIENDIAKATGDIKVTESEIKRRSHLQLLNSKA

human B7H7 = molecular target: T3, human B7H7 (human, UniProt Q9UM44 23-344); assay: ELISA, plate coated with the antigen
T3 construct: also called HHLA2
T3 sequence (looked up): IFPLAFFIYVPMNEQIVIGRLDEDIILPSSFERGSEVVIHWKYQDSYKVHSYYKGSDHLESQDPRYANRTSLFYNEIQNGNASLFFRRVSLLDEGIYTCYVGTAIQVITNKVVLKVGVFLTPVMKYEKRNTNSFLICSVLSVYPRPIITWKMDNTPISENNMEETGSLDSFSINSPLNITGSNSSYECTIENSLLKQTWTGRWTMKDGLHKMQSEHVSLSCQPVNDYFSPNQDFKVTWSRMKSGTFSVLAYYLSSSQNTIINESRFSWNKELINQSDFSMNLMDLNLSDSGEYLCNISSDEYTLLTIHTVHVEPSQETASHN

human CTLA4 = human CTLA4 (human, UniProt P16410 36-162); assay: ELISA, plate coated with the antigen
human CTLA4, sequence (P16410 36-162 limits assumed): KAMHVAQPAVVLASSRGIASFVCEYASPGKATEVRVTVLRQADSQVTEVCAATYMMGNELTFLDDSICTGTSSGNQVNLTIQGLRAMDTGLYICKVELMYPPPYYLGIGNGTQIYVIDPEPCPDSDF

[1] = molecular target: T4, recombinant human VISTA (His-tagged) (human, UniProt Q9H7M9 33-194); assay: antigen-binding ELISA; HMBD-002 10 mg/mL in F5, day 0
T4 construct: bought soluble protein (Sino Biological); also called hVISTA; human VISTA polypeptide

[2] = molecular target: T4, recombinant human VISTA (His-tagged); assay: antigen-binding ELISA; HMBD-002 in F6, day 30 at 40°C
[3] = molecular target: T4, recombinant human VISTA (His-tagged); assay: antigen-binding ELISA; HMBD-002 in F8, day 20 at 40°C
[4] = molecular target: T5, mouse VISTA expressed on cells (mouse, UniProt Q9D659 33-308); assay: flow cytometry, HEK293T cells expressing the VISTA ortholog
T5 construct: whole, on cells; also called murine VISTA on transfected cells; VISTA on mouse CD11b+ myeloid cells
T5 sequence (looked up): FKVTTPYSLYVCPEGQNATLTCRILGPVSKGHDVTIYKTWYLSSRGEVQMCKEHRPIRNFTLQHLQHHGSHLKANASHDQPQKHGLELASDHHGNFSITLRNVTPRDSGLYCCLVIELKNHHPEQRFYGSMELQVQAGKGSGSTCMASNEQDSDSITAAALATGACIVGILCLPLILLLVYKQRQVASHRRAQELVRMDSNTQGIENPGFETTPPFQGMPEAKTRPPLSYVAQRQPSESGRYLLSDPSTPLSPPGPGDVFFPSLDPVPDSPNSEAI
Method: To identify myeloid cells, PBMCs were further incubated with CD45 FITC and CD11b PE. Cells were washed again and resuspended in 200 μL of FACS flow buffer (PBS with 5 mM EDTA) for flow cytometric analysis using MACSQuant 10 (Miltenyi). After acquisition, all raw data were analyzed using Flowlogic software. Cells were gated using forward and side scatter, and the percentage of positive cells was determined.

[5] = molecular target: T4, recombinant human VISTA (His-tagged); assay: antigen-binding ELISA; reference standard run with the day 20 samples
[6] = molecular target: T4, recombinant human VISTA (His-tagged); assay: ELISA on coated human VISTA, antibody diluted in buffer of pH 7
Method: 384-well plates were coated with 1 μg/ml of target antigen diluted in PBS for 16 hrs at 4° C. […] After washing, plates were developed with colorimetric detection substrate 3,3′,5,5′-tetramethylbenzidine (Turbo-TMB; Pierce) for 10 min.

[7] = molecular target: T6, recombinant mouse VISTA (His-tagged) (mouse, UniProt Q9D659 33-191); assay: BLI (Octet), 1:1 global fit, His-tagged mouse VISTA captured
T6 construct: also called murine VISTA; mVISTA
T6 sequence (looked up): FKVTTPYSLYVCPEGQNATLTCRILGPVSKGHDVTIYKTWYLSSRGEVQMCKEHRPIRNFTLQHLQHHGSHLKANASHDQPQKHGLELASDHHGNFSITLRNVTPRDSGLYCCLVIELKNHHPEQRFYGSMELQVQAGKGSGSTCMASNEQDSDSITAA
Method: All measurements were performed at 25° C. with agitation at 1000 rpm. […] Sensograms were referenced for buffer effects and then fitted using the Octet QK384 user software (Pall ForteBio, USA).

human CD47 = molecular target: T7, human CD47 (human, UniProt Q08722 19-139); assay: BLI (Octet), His-tagged hCD47 on anti-Penta-HIS biosensor, antibody 1500-46.9 nM
T7 construct: also called hCD47
T7 sequence (Q08722 19-139 limits assumed): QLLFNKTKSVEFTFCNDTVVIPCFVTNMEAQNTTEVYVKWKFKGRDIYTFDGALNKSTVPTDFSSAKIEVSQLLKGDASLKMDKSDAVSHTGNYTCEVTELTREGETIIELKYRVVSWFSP
Method: Finally, the biosensors were incubated for 120 sec in PBS pH 7.2 to obtain the dissociation curves. Kinetic and affinity constants were calculated by global fitting of the association and dissociation data to a 1:1 binding model.

[8] = molecular target: T6, recombinant mouse VISTA (His-tagged); assay: BLI (Octet QK384): His-tagged murine VISTA on anti-Penta-HIS tips, V4 666.5 to 41.7 nM as analyte, global fit
Method: (§1) All measurements were performed at 25° C. with agitation at 1000 rpm. Kinetic measurements for antigen binding were performed by loading anti-VISTA antibody at different concentrations (indicated in the Figures) for 120 s, followed by a 120 s dissociation time by transferring the biosensors into assay buffer containing wells. Sensograms were referenced for buffer effects and then fitted using the Octet QK384 user software (Pall ForteBio, USA).
(§2) Kinetic responses were subjected to a global fitting using a one site binding model to obtain values for association (kon), dissociation (koff) rate constants and the equilibrium dissociation constant (KD). Only curves that could be reliably fitted with the software (R²>0.90) were included in the analysis.

[9] = molecular target: T8, recombinant cynomolgus macaque VISTA (His-tagged) (cynomolgus macaque, UniProt A0A7N9IB00 33-194); assay: BLI (Octet QK384): His-tagged cynomolgus VISTA on anti-Penta-HIS tips, V4 1433 to 179.1 nM as analyte, global fit
T8 construct: also called cyno VISTA; cynomolgus monkey VISTA
Method: as §1, §2

human PD-1, sequence (Q15116 25-167 limits assumed): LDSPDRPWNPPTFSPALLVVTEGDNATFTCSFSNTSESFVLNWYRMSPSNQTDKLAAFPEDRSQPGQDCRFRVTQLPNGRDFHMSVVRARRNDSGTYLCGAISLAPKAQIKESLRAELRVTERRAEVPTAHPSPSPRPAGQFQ

B1: anti-VISTA clone V4-C26 IgG1 (antibody)
heavy: not shown
light: EIVLTQSPATLSLSPGERATLSCRASSSVGYIHWYQQKPGQAPRPIIYTTSNRATGIPARFSGSGSGTDNTLTISSLEPEDSAVYYCQQWSSYPPITFGGGTKLEVKRTVAAPSVFIFPPSDEQLKSGTASVVCLLNNFYPREAKVQWKVDNALQSGNSQESVTEQDSKDSTYSLSSTLTLSKADYEKHKVYACEVTHQGLSSPVTKSFNRGEC
binding result (human PD-1): no binding (tested: log -7.5 M)
binding result (human B7H3): no binding (tested: log -7.5 M)
binding result (human B7H4): no binding (tested: log -7.5 M)
binding result (human B7H7): no binding (tested: log -7.5 M)
binding result (human CTLA4): no binding (tested: log -7.5 M)

B2: V4-C26 hIgG4 (antibody)
heavy: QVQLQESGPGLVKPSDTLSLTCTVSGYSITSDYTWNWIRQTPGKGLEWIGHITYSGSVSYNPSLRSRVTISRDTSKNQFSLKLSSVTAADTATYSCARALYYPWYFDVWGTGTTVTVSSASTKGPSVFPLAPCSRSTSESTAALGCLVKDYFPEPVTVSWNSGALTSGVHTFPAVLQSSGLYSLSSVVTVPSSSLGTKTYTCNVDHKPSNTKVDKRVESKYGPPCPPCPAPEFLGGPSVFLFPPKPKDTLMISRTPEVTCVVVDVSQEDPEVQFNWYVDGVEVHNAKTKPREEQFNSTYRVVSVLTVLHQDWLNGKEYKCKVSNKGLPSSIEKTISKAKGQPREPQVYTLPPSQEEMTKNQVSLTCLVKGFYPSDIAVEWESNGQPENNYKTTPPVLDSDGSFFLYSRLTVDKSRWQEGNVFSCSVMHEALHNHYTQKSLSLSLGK
light: EIVLTQSPATLSLSPGERATLSCRASSSVGYIHWYQQKPGQAPRPIIYTTSNRATGIPARFSGSGSGTDNTLTISSLEPEDSAVYYCQQWSSYPPITFGGGTKLEVKRTVAAPSVFIFPPSDEQLKSGTASVVCLLNNFYPREAKVQWKVDNALQSGNSQESVTEQDSKDSTYSLSSTLTLSKADYEKHKVYACEVTHQGLSSPVTKSFNRGEC
notes: human IgG4 (S228P)/kappa format; also called HMBD-002; HMBD-002-V4C26
EC50 [1]: 0.031 nM
EC50 [2]: 0.0218 nM
EC50 [3]: 0.0248 nM
EC50 [4]: 8.94 nM
EC50 [5]: 0.0355 nM
EC50 [6]: 0.0343 nM

B3: anti-VISTA clone 4M2-C12 IgG1 (antibody)
heavy: not shown
light: DIVITQTPAILSTSPGEKVTMTCRASSSVGYIHWYQQKPGSSPKPWIYATSNLASGVPARFSGSGSGTSNSLTITRVEAEDAATYYCQQWSSYPPITFGGGTKLEVKRTVAAPSVFIFPPSDEQLKSGTASVVCLLNNFYPREAKVQWKVDNALQSGNSQESVTEQDSKDSTYSLSSTLTLSKADYEKHKVYACEVTHQGLSSPVTKSFNRGEC
notes: mouse variable regions on human IgG1/kappa constant regions; also called V4; V4pr
Kd [7]: 108 nM
koff [7]: 0.00656 s⁻¹
kon [7]: 60900 M⁻¹ s⁻¹
binding result (human CD47): no binding (tested: 1500 nM)
koff [8]: 0.00445 s⁻¹
kon [8]: 39500 M⁻¹ s⁻¹
koff [9]: < 1e-07 s⁻¹
kon [9]: 40200 M⁻¹ s⁻¹
